Among the data in US20130310313A1 (CHINA MEDICAL UNIVERSITY, published 2013) are EC50 values, retold here.

Some results are limits rather than exact numbers.

Sequences and labels used below:
B1: IRBP-ZE (SEQ ID NO:187) (peptide)
peptide: IVIRTPIIT
notes: Homologue of IRBP-60-68 with several residues replaced; synthetic
B2: IRBP-SN (SEQ ID NO:181) (peptide)
peptide: IVTRVPVIG
notes: as for B1
B3: IRBP-CM (SEQ ID NO:184) (peptide)
peptide: LVVSPPRIG
notes: as for B1
B4: IRBP-VV-2 (SEQ ID NO:180) (peptide)
peptide: IVISVPTIG
notes: as for B1
B5: IRBP-VV-1 (SEQ ID NO:185) (peptide)
peptide: IVSMVPKIG
notes: as for B1
B6: IRBP-MT (SEQ ID NO:179) (peptide)
peptide: IVYQVPTIG
notes: as for B1
B7: IRBP-CP (SEQ ID NO:186) (peptide)
peptide: KVIRVPRIG
notes: as for B1
B8: IRBP-LU (SEQ ID NO:188) (peptide)
peptide: VVTSVPHIT
notes: as for B1
B9: IRBP-AT (SEQ ID NO:182) (peptide)
peptide: IVVRNPTAG
notes: as for B1
B10: IRBP-OS (SEQ ID NO:183) (peptide)
peptide: TVAKTPTIG
notes: as for B1
B11: IRBP-1-68 polypeptide (SEQ ID NO:1) (peptide)
chain: SRCQGKSSWPQLVGSTGAAAKAVIERENPRVRAVIIKVGSGATKDFRCDRVRVWVTERGIVARPPTIG

One experiment addresses T1, insulin receptor on human lymphocyte cells (IM-9) (human, UniProt P06213 28-1382).
T1 construct: whole, on cells; Endogenous receptor of IM-9 cells; also called IR; insulin receptors
The experiment is described as follows: whole cell receptor binding assay on IM-9 cells with 125I-insulin; EC50 of promoting 125I-insulin binding.
For orientation: EC50 means the concentration at which the effect is half-maximal. Low readings indicate greater potency, high ones weaker potency. As for DFRCDRVRVWVTERGIVARPPTIG (synthetic) [IRBP-45-68 (SEQ ID NO:5)], the EC50 was more than 25 nM. The molecule RVRVWVTERGIVARPPTIG [IRBP-50-68 (SEQ ID NO:6)] showed an EC50 of 0.73 nM. On the same count and under the same terms, as for IVARPPTIG (synthetic) [IRBP-60-68 (SEQ ID NO:7)], the figure is 0.77 nM; as for VIIKVGSGATKDFRCDRVR (synthetic) [IRBP-34-52 (SEQ ID NO:4)], more than 25 nM. The same measure, in the same setting: next, SRCQGKSSWPGLVGSTGAA (synthetic) [IRBP-1-19 (SEQ ID NO:2)]: 15.3 nM.

Another experiment concerns the target T1, insulin receptor on human lymphocyte …. Described as above. This is another data set of the same source. On the procedure: (§1) After incubation, the cells were chilled, centrifuged at 2000 rpm for 10 min at 4° C., and the pellets were washed twice with an ice-cold wash buffer (10 mmol/L Tris and 150 mmol/L NaCl, pH 7.6). The pellet was counted by a gamma counter. The assays were performed at least three times for each polypeptide. […] The lower value of EC₅₀ represents a stronger effect on promoting the binding.
For B1, the half-maximal effective concentration (EC50) turned out to be 4.94 nM. That is a single-digit nanomolar value. On the same count and under the same terms, as for B2, the figure is 9.79 nM; as for B3, 0.92 nM; as for IVARPPAIG [IRBP-MC (SEQ ID NO:21)], 0.86 nM.

The molecule B4 showed a concentration giving a half-maximal response (EC50) of 4.98 nM.

Regarding B5, the EC50 was determined as 0.96 nM. As for B6, it took 0.77 nM to reach a half-maximal effect (EC50). As to B7, the concentration giving a half-maximal response (EC50) turned out to be 0.84 nM. On the same count and under the same terms, next, B8: 9.7 nM; B9: 9.98 nM.

As for B10, a half-maximal effect (EC50) was put at 9.93 nM.

Another experiment has the same target. The experiment is described as follows: whole cell receptor binding assay on IM-9 cells with 125I-insulin; EC50 defined as the concentration promoting 50% of the 125I-insulin to bind. On the procedure:
as §1
In turn, B11 had an EC50 of 4.15 nM.
